This note sets out measurements from patent publication US20200308290A1 (AbbVie / Abbott, published 2020).

T1: human CD25 (recombinant soluble) (human, UniProt P01589 22-240)
T1 construct: extracellular domain; bought protein; also called IL2-Rα; recombinant human IL2-Rα
T1 sequence (looked up): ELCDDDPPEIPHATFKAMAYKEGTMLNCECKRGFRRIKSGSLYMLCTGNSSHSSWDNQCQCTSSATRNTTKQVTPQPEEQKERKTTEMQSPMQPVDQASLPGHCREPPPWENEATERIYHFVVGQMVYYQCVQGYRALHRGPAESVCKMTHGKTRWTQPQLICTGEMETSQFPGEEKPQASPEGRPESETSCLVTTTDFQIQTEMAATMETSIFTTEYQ

T2: human CD25 (human, UniProt P01589 22-213, limits assumed)
T2 construct: Recombinant soluble human CD25, coated on plates (ELISA) or injected over captured antibody (BIAcore); also called hCD25; IL2-R alpha
T2 sequence (looked up): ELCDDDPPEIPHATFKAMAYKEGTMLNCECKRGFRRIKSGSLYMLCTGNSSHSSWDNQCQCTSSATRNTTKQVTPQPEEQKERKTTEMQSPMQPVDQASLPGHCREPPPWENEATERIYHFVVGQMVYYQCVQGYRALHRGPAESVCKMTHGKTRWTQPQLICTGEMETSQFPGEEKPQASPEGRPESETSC

T3: human CD25 on cells (human, UniProt P01589 22-272)
T3 sequence (looked up): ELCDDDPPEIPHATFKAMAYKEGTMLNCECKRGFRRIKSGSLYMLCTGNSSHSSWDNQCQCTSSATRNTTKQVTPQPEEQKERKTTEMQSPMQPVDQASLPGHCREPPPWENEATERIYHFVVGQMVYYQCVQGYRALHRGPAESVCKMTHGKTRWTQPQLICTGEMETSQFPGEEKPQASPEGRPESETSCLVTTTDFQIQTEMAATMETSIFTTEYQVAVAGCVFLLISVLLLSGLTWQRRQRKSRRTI

B1: Variant C39 (antibody, V domains shown)
VH: QVQLVQSGAEVKKPGSSVKVSCKASGYTFTSYRMHWVRQAPGQGLEWMGYISPRKGYTEYNQKFKDKATITADESTNTAYMELSSLRSEDTAVYYCARGGGVFDYWGQGTLVTVSS
VL: DIQMTQSPSTLSASVGDRVTITCSASSKISYMHWYQQKPGKAPKLLIYTTSDLASGVPARFSGSGSGTEFTLTISSLQPDDFATYYCHQRSTYPLTFGQGTKVEVK
B2: Variant C27 (antibody, name in Kabat numbering, V domains shown)
VH: B1 VH with S52N, R54S, K55S
VL: B1 VL with K28S, D52N
notes: Isotype as printed: G2M3.QL
B3: Variant C34 (antibody, V domains shown)
VH: B1 VH with S52K, R54S, K55R
VL: B1 VL
notes: Isotype as printed: G2M3.QL
B4: Variant C28 (antibody, V domains shown)
VH: B1 VH with S52N, R54S, K55S
VL: B1 VL
notes: Isotype as printed: G2M3.QL
B5: Variant C29 (antibody, name in Kabat numbering, V domains shown)
VH: B1 VH with S52N, R54S, K55S
VL: B1 VL with K28S, D52E
notes: Isotype as printed: G2M3.QL
B6: QRKFH (antibody, IgG1, name in Kabat numbering, V domains shown)
VH: B1 VH with M48I, S52Q, Y57F, E59H
VL: B1 VL with K28S, D52N
notes: soluble IgG1 from the VH library; Kabat numbers; also called VH variant QRKFH
B7: SNKYL (antibody, IgG1, name in Kabat numbering, V domains shown)
VH: B1 VH with M48I, R54N, E59L
VL: B1 VL with K28S, D52N
notes: soluble IgG1 from the VH library; Kabat numbers; also called VH variant SNKYL
B8: RRGFE (antibody, IgG1, name in Kabat numbering, V domains shown)
VH: B1 VH with M48I, S52R, K55G, Y57F
VL: B1 VL with K28S, D52N
notes: soluble IgG1 from the VH library; Kabat numbers; also called VH variant RRGFE
B9: RKGFN (antibody, IgG1, name in Kabat numbering, V domains shown)
VH: B1 VH with M48I, S52R, R54K, K55G, Y57F, E59N
VL: B1 VL with K28S, D52N
notes: soluble IgG1 from the VH library; Kabat numbers; also called VH variant RKGFN
B10: RKGFE (antibody, IgG1, name in Kabat numbering, V domains shown)
VH: B1 VH with M48I, S52R, R54K, K55G, Y57F
VL: B1 VL with K28S, D52N
notes: soluble IgG1 from the VH library; Kabat numbers; also called VH variant RKGFE
B11: RRKFE (antibody, IgG1, name in Kabat numbering, V domains shown)
VH: B1 VH with M48I, S52R, Y57F
VL: B1 VL with K28S, D52N
notes: soluble IgG1 from the VH library; Kabat numbers; also called VH variant RRKFE
B12: Variant C41 (antibody, name in Kabat numbering, V domains shown)
VH: B1 VH with K55S
VL: B1 VL with K28S, D52N
notes: Isotype as printed: G2M3.QL
B13: Variant C37 (antibody, name in Kabat numbering, V domains shown)
VH: B1 VH with S52K, R54S, K55S
VL: B1 VL with K28S, D52E
notes: Isotype as printed: G2M3.QL
B14: Variant C43 (antibody, name in Kabat numbering, V domains shown)
VH: B1 VH with K55S
VL: B1 VL with K28S, D52E
notes: Isotype as printed: G2M3.QL

Changes are numbered by the printed parent chain.

The target of the first assay is T4, cynomolgous monkey CD25 (cynomolgous monkey).
T4 construct: also called cmCD25; cm
Nature of the assay: SPR (BIAcore), cynomolgous CD25.
With B1, binding was characterised by a dissociation constant (Kd) of 0.031 nM.

Molecule B2 yielded a Kd of 0.263 nM.

For the next assay, the target named is T4, cynomolgous monkey CD25. Nature of the assay: SPR (BIAcore), cynomolgous CD25. The source holds these as a separate data set.
In the case of B1, the affinity, expressed as Kd, was 0.031 nM.

B3 registered a Kd of 0.088 nM.

Regarding B4, binding was put at a Kd of 0.049 nM. B2 registered a Kd of 0.263 nM.

B5 gave a Kd of 0.098 nM.

For the next assay, the target named is T1, human CD25 (recombinant soluble). Kind of assay: competitive ELISA with biotinylated daclizumab on CD25.
Experimental: Wells of 96-well ELISA plates (Nunc-Immuno MaxiSorp plates, Nalge Nunc, Rochester, N.Y.) were coated with 100 μL of 0.2 μg/mL CD25 (Pepro Tech Inc., Rocky Hill, N.J.) in 0.2 M sodium carbonate-bicarbonate buffer (pH 9.4, Pierce, Rockford, Ill.) overnight at 4° C. After washing with Wash Buffer, wells were blocked with 200 μL of Superblock Blocking Buffer (Pierce, Rockford, Ill.) for 30 min and then washed. […] The plate was then washed with washing buffer three times. After washing, 100 μL of 1 μg/mL HRP-conjugated Streptavidin (Pierce) diluted in ELISA buffer was added to each well. After 30 minutes of incubation at room temperature, plates were washed and bound antibodies were detected by addition of ABTS substrate (Kirkegaard & Perry Laboratories, Gaithersburg, Md.). […] PRISM (GraphPad, San Diego) and reported as IC₅₀ wild type/IC₅₀ mutant (fold improvement over wild type control).
As for B6, the “fold affinity over the parental antibody” value was about 10 fold. For B7, the “fold affinity over the parental antibody” value was about 10 fold. Same read-out and setting: as for B8, the figure is about 10 fold; as for B9, about 10 fold; as for B10, about 10 fold. On the same count and under the same terms, to B11 belongs about 10 fold.

For another assay, the target named is T2, human CD25. Nature of the assay: SPR (BIAcore).
In turn, B3 registered a dissociation constant Kd of 0.021 nM. In turn, B4 displayed a Kd of 0.054 nM.

For a further assay, the target named is T3, human CD25 on cells. Nature of the assay: cell-based or functional assay.
For B3, the “Kit225 (fold improvement in inhibition of IL2-induced Kit225 proliferation)” value is 3.1 fold and the “PBMC (fold improvement in inhibition of IL2-induced PHA blast proliferation)” value was found to be 6.4 fold. The corresponding values for B4 are 2.8 fold and 5.8 fold. For the molecule B12, the “Kit225 (fold improvement in inhibition of IL2-induced Kit225 proliferation)” value was found to be 2.5 fold.

In a further assay the target is T2, human CD25. Kind of assay: competition ELISA vs biotinylated daclizumab, fold over wild type.
As for B3, the ELISA fold improvement was determined as 7.8 fold. Same read-out and setting: to B4 belongs 1.6 fold; to B12, 6.1 fold; to B13, 4.1 fold. Same read-out and setting: as for B14, the figure is 4.2 fold.
